Experimental data from patent US20260008815A1, “CYCLIC PEPTIDE OR SALT THEREOF, AND USES THEREOF” (FUJIFILM Corporation, priority 2023, published 2026).
Bridge positions count the residues as written; N and C are the ends. Ends that are not written are not given here. COCH2 = acetyl group that carries the bridge

target: T1, Recombinant Human FGFR2 alpha (IIIc) Fc Chimera Protein, CF (R&D systems, 712-FR-050) (human, UniProt P21802 22-377); assay: ELISA on plate-bound FGFR2-Fc
T1 construct: bought; not shown: Fc part of the chimera
T1 sequence (P21802 22-377, change not shown): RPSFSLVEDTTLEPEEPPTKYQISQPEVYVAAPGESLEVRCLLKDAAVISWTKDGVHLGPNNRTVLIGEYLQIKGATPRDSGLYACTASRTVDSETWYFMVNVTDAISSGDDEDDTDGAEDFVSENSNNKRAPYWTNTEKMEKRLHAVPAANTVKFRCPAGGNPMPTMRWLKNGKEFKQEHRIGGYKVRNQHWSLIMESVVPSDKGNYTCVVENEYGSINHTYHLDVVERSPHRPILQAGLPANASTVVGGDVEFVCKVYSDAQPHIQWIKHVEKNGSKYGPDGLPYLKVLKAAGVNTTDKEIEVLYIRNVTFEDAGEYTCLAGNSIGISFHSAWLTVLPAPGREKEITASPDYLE
Description: First, 5 ng of Recombinant Human FGFR2 alpha (IIIc) Fc Chimera Protein (R&D systems, 712-FR-050) was immobilized in each well of a 96-well plate, and blocked with Pierce Protein-Free (PBS) Blocking Buffer (Thermo, 37572), and a peptide diluted with Can Get Signal Immunoreaction Enhancer Solution I (TOYOBO, NKB-101) was then added and reacted at room temperature for 3 hours. After washing with 0.05% Tween 20-containing phosphate buffered saline (PBS), an anti-Myc antibody (Cell Signaling, 14038S) diluted with Can Get Signal Immunoreaction Enhancer Solution II (TOYOBO, NKB-101) was added and reacted at room temperature for 2 hours. After washing with 0.05% Tween 20-containing PBS, SuperSignal ELISA Femto Substrate (Thermo, 37075) was added, and the luminescence amount was measured. The dose-response relationship was calculated from using the difference between the luminescence amount in the well in which FGFR was immobilized and the luminescence amount in the well in which FGFR was not immobilized, and the concentration of the peptide at the time of reaction, and the binding affinity to FGFR was evaluated according to the following evaluation criteria. The evaluation result preferably satisfies the evaluation criteria A, B, or C.

ELISA luminescence signal at 10 nmol/L peptide, relative to SEQ ID NO: 47 (=1) | Binder
0.1 to 0.5 ratio | YCEENYEDPEQYQYFIYFK(COCH2)Y (thioether 2-19 (inferred)) [cyclic peptide SEQ ID NO: 204]
≥ 0.7 ratio | YCEENYRDPEQYQYFIYFK(COCH2)Y (thioether 2-19 (inferred)) [cyclic peptide SEQ ID NO: 205]
≥ 0.7 ratio | YCEENYHDPEQYQYFIYFK(COCH2)Y (thioether 2-19 (inferred)) [cyclic peptide SEQ ID NO: 206]
≥ 0.7 ratio | YCEENYLGPEQYQYFIYFK(COCH2)Y (thioether 2-19 (inferred)) [cyclic peptide SEQ ID NO: 207]
0.1 to 0.5 ratio | YCEENYLLPEQYQYFIYFK(COCH2)Y (thioether 2-19 (inferred)) [cyclic peptide SEQ ID NO: 208]
0.1 to 0.5 ratio | YCEENYLIPEQYQYFIYFK(COCH2)Y (thioether 2-19 (inferred)) [cyclic peptide SEQ ID NO: 209]
0.1 to 0.5 ratio | YCEENYLVPEQYQYFIYFK(COCH2)Y (thioether 2-19 (inferred)) [cyclic peptide SEQ ID NO: 210]
≥ 0.7 ratio | YCEENYLFPEQYQYFIYFK(COCH2)Y (thioether 2-19 (inferred)) [cyclic peptide SEQ ID NO: 211]
≥ 0.7 ratio | YCEENYLYPEQYQYFIYFK(COCH2)Y (thioether 2-19 (inferred)) [cyclic peptide SEQ ID NO: 212]
0.5 to 0.7 ratio | YCEENYLWPEQYQYFIYFK(COCH2)Y (thioether 2-19 (inferred)) [cyclic peptide SEQ ID NO: 213]
≥ 0.7 ratio | YCEENYLNPEQYQYFIYFK(COCH2)Y (thioether 2-19 (inferred)) [cyclic peptide SEQ ID NO: 214]
≥ 0.7 ratio | YCEENYLQPEQYQYFIYFK(COCH2)Y (thioether 2-19 (inferred)) [cyclic peptide SEQ ID NO: 215]
≥ 0.7 ratio | YCEENYLSPEQYQYFIYFK(COCH2)Y (thioether 2-19 (inferred)) [cyclic peptide SEQ ID NO: 216]

Second part, the binder before the results:

Binder | ELISA luminescence signal at 10 nmol/L peptide, relative to SEQ ID NO: 47 (=1)
YCEQNYLDPEQYQYFIYFK(COCH2)Y (thioether 2-19 (inferred)) [cyclic peptide SEQ ID NO: 175] | ≥ 0.7 ratio
YCESNYLDPEQYQYFIYFK(COCH2)Y (thioether 2-19 (inferred)) [cyclic peptide SEQ ID NO: 176] | ≥ 0.7 ratio
YCETNYLDPEQYQYFIYFK(COCH2)Y (thioether 2-19 (inferred)) [cyclic peptide SEQ ID NO: 177] | ≥ 0.7 ratio
YCEDNYLDPEQYQYFIYFK(COCH2)Y (thioether 2-19 (inferred)) [cyclic peptide SEQ ID NO: 178] | ≥ 0.7 ratio
YCERNYLDPEQYQYFIYFK(COCH2)Y (thioether 2-19 (inferred)) [cyclic peptide SEQ ID NO: 179] | ≥ 0.7 ratio
YCEHNYLDPEQYQYFIYFK(COCH2)Y (thioether 2-19 (inferred)) [cyclic peptide SEQ ID NO: 180] | ≥ 0.7 ratio
YCEEGYLDPEQYQYFIYFK(COCH2)Y (thioether 2-19 (inferred)) [cyclic peptide SEQ ID NO: 181] | 0.5 to 0.7 ratio
YCEEWYLDPEQYQYFIYFK(COCH2)Y (thioether 2-19 (inferred)) [cyclic peptide SEQ ID NO: 182] | 0.1 to 0.5 ratio
YCEEQYLDPEQYQYFIYFK(COCH2)Y (thioether 2-19 (inferred)) [cyclic peptide SEQ ID NO: 183] | 0.1 to 0.5 ratio
YCEESYLDPEQYQYFIYFK(COCH2)Y (thioether 2-19 (inferred)) [cyclic peptide SEQ ID NO: 184] | 0.1 to 0.5 ratio
YCEETYLDPEQYQYFIYFK(COCH2)Y (thioether 2-19 (inferred)) [cyclic peptide SEQ ID NO: 185] | 0.1 to 0.5 ratio
YCEENLLDPEQYQYFIYFK(COCH2)Y (thioether 2-19 (inferred)) [cyclic peptide SEQ ID NO: 186] | 0.1 to 0.5 ratio
YCEENFLDPEQYQYFIYFK(COCH2)Y (thioether 2-19 (inferred)) [cyclic peptide SEQ ID NO: 187] | ≥ 0.7 ratio
YCEENWLDPEQYQYFIYFK(COCH2)Y (thioether 2-19 (inferred)) [cyclic peptide SEQ ID NO: 188] | ≥ 0.7 ratio
YCEENNLDPEQYQYFIYFK(COCH2)Y (thioether 2-19 (inferred)) [cyclic peptide SEQ ID NO: 189] | 0.5 to 0.7 ratio
YCEENQLDPEQYQYFIYFK(COCH2)Y (thioether 2-19 (inferred)) [cyclic peptide SEQ ID NO: 190] | 0.1 to 0.5 ratio
YCEENSLDPEQYQYFIYFK(COCH2)Y (thioether 2-19 (inferred)) [cyclic peptide SEQ ID NO: 191] | 0.1 to 0.5 ratio
YCEENDLDPEQYQYFIYFK(COCH2)Y (thioether 2-19 (inferred)) [cyclic peptide SEQ ID NO: 192] | 0.1 to 0.5 ratio
YCEENRLDPEQYQYFIYFK(COCH2)Y (thioether 2-19 (inferred)) [cyclic peptide SEQ ID NO: 193] | 0.1 to 0.5 ratio
YCEENHLDPEQYQYFIYFK(COCH2)Y (thioether 2-19 (inferred)) [cyclic peptide SEQ ID NO: 194] | ≥ 0.7 ratio
YCEENYIDPEQYQYFIYFK(COCH2)Y (thioether 2-19 (inferred)) [cyclic peptide SEQ ID NO: 195] | ≥ 0.7 ratio
YCEENYVDPEQYQYFIYFK(COCH2)Y (thioether 2-19 (inferred)) [cyclic peptide SEQ ID NO: 196] | ≥ 0.7 ratio
YCEENYFDPEQYQYFIYFK(COCH2)Y (thioether 2-19 (inferred)) [cyclic peptide SEQ ID NO: 197] | ≥ 0.7 ratio
YCEENYYDPEQYQYFIYFK(COCH2)Y (thioether 2-19 (inferred)) [cyclic peptide SEQ ID NO: 198] | ≥ 0.7 ratio
YCEENYWDPEQYQYFIYFK(COCH2)Y (thioether 2-19 (inferred)) [cyclic peptide SEQ ID NO: 199] | ≥ 0.7 ratio
YCEENYNDPEQYQYFIYFK(COCH2)Y (thioether 2-19 (inferred)) [cyclic peptide SEQ ID NO: 200] | 0.1 to 0.5 ratio
YCEENYQDPEQYQYFIYFK(COCH2)Y (thioether 2-19 (inferred)) [cyclic peptide SEQ ID NO: 201] | ≥ 0.7 ratio
YCEENYSDPEQYQYFIYFK(COCH2)Y (thioether 2-19 (inferred)) [cyclic peptide SEQ ID NO: 202] | 0.5 to 0.7 ratio
YCEENYTDPEQYQYFIYFK(COCH2)Y (thioether 2-19 (inferred)) [cyclic peptide SEQ ID NO: 203] | ≥ 0.7 ratio
